Assay: soluble on expression in E. coli; label from the status in PepcDB or PDB records

Sequence | soluble on expression in E. coli
MSLAKRIVGSTPKQDGFRMPGEFEPQEKVWMIWPERPDNWRDGGKPVQEAFTNVAKAISQFTPMNVVVSQQQFQNCRRQLPPEITVYEMSNNDAWVRDCGPSFVINDHGEIRGVDWTFNAWGGLVDGLYFPWDQDDLVAQKICEIEHVDSYRTDDFVLEGGSFHVDGQGTVLTTEMCLLSEGRNPQLSKEAIEQKLCDYLNVEKVLWLGDGIDPEETNGHVDDVACFIAPGEVACIYTEDQNSPFYEAAQDAYQRLLKMTDAKGRQLKVHKLCCPVKNVTIKGSFKIDFVEGTMPREDGDICIASYMNFLITNDGVIVPQYGDENDHLALEQVQTMFPDKKIVGVNTVEVVYGGGNIHCITQQEPKREGGSHHHHHH | soluble
MEREKLELPENGKKLLLHSCCAPCSGEVMEAIVASGIDFSIFFYNPNIHPRKEYDLRKDENIRFAEKHGIPFIDADYDMDDWFKRAKGMEMEPERGIRCTMCFDMRFERTALYAYENGFDVISSSLGISRWKNMDQINDSGVRAAAQYPGITYWTYNWRKKGGSARMLEISKREKFYMQEYCGCAYSLRDTNKWRVEHGREKIRIGEKYYGDVTE | not soluble
MKKVIKKYFFLALAIIMYSCNEDEKYDILERYTPETITSDEIAPVLNLQAQYMDSNSEIVLVTWMNPEDDFLSKVEISCCSANDNLLGEPVLLDAVSTKVGSYQTSLSVEERGYVKIVAINEKGVRSEARTAEILSSQQDFVYRADCLMSSVIELFFGGRYNAWNENYPNATGPYWDGIAAVWGQGAAYSGFVTMYKVTKETNNEKLRAKYAEKEETFLNSIDIFLNNGSGRKSFAYGTYIGPNDERYYDDNVWIGIEMANLYELTGNEVYLQHANTVWNFILEGIDDVTGGGVYWKEGAVSKHTCSTAPAAVMALKLYQLSKNESYLEIAKSLYSYCKDVLQDPNDYLFYDNVRLSDPSDKNSELKVSKDKFTYNSGQPMLAAAMLYRITKEEQFLKDAQNIAQSIYKKWFKNYHSSILDRDIMILSDPNTWFNAVMFRGFVELYKIDKNDVYVKAVKNTMEHAWQSNCRNRLTNLMSDDYAGDKKEGKWNIKTQGAFVEIFSLIGELEQLGCFQELEHHHHHH | not soluble
MGSDKIHHHHHHAASITLPSGYTKNAVIKWNQTGKASKALINASKKGMMENTNSDAGSDNTLVNVTKLTNSQKVELSKYTLSLINSARSQLGKKPWTYRSGALRFADRVANQYYTHNKSCWDPDHYVAGILRAAKASGLNSNAGQVYEDEAGLPISSQYGSNLRTMSVLKNQIYFNVKQMLFGGFAGSDSQMNDSSRYTEWEHAGDLLGCRTKNYDAKTKYFGVSFSGLKDDQSKISVHMIGVAKRYIQNYKKFNH | not soluble
MSIDIKYLSRIDIDREEFFFKDSRLMCKKFDEEREVLTLLEFDTKFRVNLLKKDKVYKYFLVSDANHKLLIANLVTEQQAKDLSFIEKDIMKIASSATAYGASDIHFIREDRICKIKFRVNGTMIDYREILSSEADALMFVLYNVMATTKETTWNRKLPQDANIILVINEKAYRFRYAHMPLFGEGGKNYHAVVRIIYPSNNFVCTNYQDIGYNEADTDAIARILNTSYGLFIVSGTTGSGKSTSLKKYIELLFFNKYKGKGCFVTVEDPVEYLISGAQQSSIVADNDDKTKNPFADAVRSAMRRDPDVIMIGEIRDKPTVEALSSAVESGHYCLTTIHAGSVVSVLQRLSGLGMKADKIASPGFLAGITSQKLIPELCPSCKVSFVDERYQRAVFSANENGCEACNHSGFKGRLLLLETLVPTVEDLELVASENWVSLYRKYRERRFIKTGKKGLGEGFSIKDKAYYNVLKGKVCHEYFMLHFGQLDHEDENIIYENYLQEV | not soluble
MANSNTQRMGTGSAILPARRRRATPRRLPKRAAHHYTPRVFSAIEPENSPMLKRSLALAAGIALSLSAALAHAETLKELKVSAIPDEAPTELLRKFKPLGAYLEKQLGMPVKFVPVADYAGVVEALAADRLDMAWLGGFTFVQARLKTGNAIPLVQREQDQQFTSKFITADPQVKSLQDLKGKTFAFGSVSSTSGSLMPRYFMQKDGIVPEQFFSRVAYSGAHDATVAWVQAGKVDAGVLNASVWQKLVDSGKVDTAKVKVFATTPTYYDYNWTVRGNLDPALAEKIKQAFLALDPAKPADKEILDLQAASRFIETNPDNYKGIEESARAAGLLK | not soluble
MSSTAVVPSAPGPGPGPSGGPGGGTEVIQVTNVSPSASSEQMRTLFGFLGKIDELRLFPPDDSPLPVSSRVCFVKFHDPDSAVVAQHLTNTVFVDRALIVVPYAEGVIPDETKALSLLAPANAVAGLLPGGGLLPTPNPLTQIGAVPLAALGAPALDPALAALGLPGTNLNSQSLAADQLLKLMSTVDPKLNHVAAGLVSPSLKSDTSSKEIEEAMKRVREAQSLISAAIEPDKKEEKRRHSRSRSRSRRRRTPSSSRHRRSRSRSRRRSHSKSRSRRRSKSPRRRRSHSRERGRRSRSTSKARD | soluble
HHHHHHGHMRTNKDRLVRISVVGEIAPAKMRSPYSVTTEGTVRVIPVLGGITYNVKVGDSAYGWAGDHVEPGVSVMARRKEEEIPLMTLSCIGNEVIVMSGDAKGSRGFVTGKHGGVNHVLVHFEEEVLGKLMVGDKILIKAWGQGLKLLDHPDVKVMNIDPDLFEKLGIQEKNGKIHVPVVAKIPAHMMGSGIGASSSASTDYDIMASNPEDLGVADLKLGDIVAIQDHDNSYGVGKYRKGAVSIGVVVHSACVSAGHGPGVVVIMTGDESKILPEEVERANISDYLVR | soluble
MGSDKIHHHHHHMTKEQSYPPTCIDCGTQNCKFKERTYPEFCLTTHLEQEDLEWALKQYNDNNKIMAASAEVEYEGYCRLTRVEEIMTFARKMGYKKLGIAYCIGLVNEARIFARILRANGFEVYSVICKVAGIAKSSIGIPKECEKIGAAMCNPILQARLLNQAYTELNVVIGLCVGHDSLFYKYSNAYTTTLVTKDRVTGHNPAAALYTANSYYRKKLMPEGEQSK | not soluble
HMAKATTIKDAIRIFEERKSVVATEAEKVELHGMIPPIEKMDATLSTLKACKHLALSTNNIEKISSLSGMENLRILSLGRNLIKKIENLDAVADTLEELWISYNQIASLSGIEKLVNLRVLYMSNNKITNWGEIDKLAALDKLEDLLLAGNPLYNDYKENNATSEYRIEVVKRLPNLKKLDGMPVDVDEREQANVARGG | soluble
SGNLLKVLTCTDLEQGPNFFLDFENAQPTESEKEIYNQVNVVLKDAEGILEDLQSYRGAGHEIREAIQHPADEKLQEKAWGAVVPLVGKLKKFYEFSQRLEAALRGLLGALTSTPYSPTQHLEREQALAKQFAEILHFTLRFDELKMTNPAIQNDFSYYRRTLSRMRINNVPAEGENEVNNELANRMSLFYAEATPMLKTLSDATTKFVSENKNLPIENTTDCLSTMASVCRVMLETPEYRSRFTNEETVSFCLRVMVGVIILYDHVHPVGAFAKTSKIDMKGCIKVLKDQPPNSVEGLLNALRYTTKHLNDETTSKQIKSMLQ | soluble
MAHHHHHHMVWKGSRERGVQEYRKKSKGNKPTKGEKVSKKGVSSSRQPKQRELLSAKQQQQQNRKNEELRAALAGAFSTEVSSSNAGPAFDGYGKGSPTDRLQFGYAPAVAAEAVAYHSTISTDAWIEARRTRYRTAIVEQKKLRRPNCEPITSILKLQGHWRSTELFEREVHGSHAVAQDKVDDILDTFVSRQRVA | not soluble
DAYIGVLIDDLVTKGTNEPYRLLTSRAEYRLLLRHDNADLRLTEIGHRIGLISDERYAAFEKKKAAIEAEKKRLHSVIIKPSPENQEYIRSLGGSELKDGVRGTDLMKRPEMNYETVTKLAPPEVPVPQDVAEQVEIQVKYEGYIEKSLQQVEKLKKMENKKIPDRIDYDAIKGIATEARQKLKNVRPLSVAQASRISGVNPADISILLVYLE | not soluble
MGSDKIHHHHHHMNPKKLKQLKKRVKKQAGAPYIQQLMKYRDLFKDDPQILVLINNVLESDRLLAAGLAPQQLPVLEIPDDFQDHLFERINQQYAMGDPAGDAAWNQLSAALPKVDQLLRNFRDYIEDQYGMWAYISAPFLKDLADFTGSAPVLEVMAGNGYISKGLKRLHPGQPIYTTDSKDWTHETGNQTGRHPVTTIEALDAVSAFNKYAATIKYVIMAWSPDKLTIDWDLLQAMRQSPYDIPLIVIGEKYGATGSKQFWDHANYQDNEAVTKLNAHFRPFDLIHDHVYVVR | not soluble
MGSDKIHHHHHHMAKIKHGFSGQRLIVYPFYVIEQALNNPLVADLVVHSMGYFPKAESHYIDRASGCGEYLLIYCTKGEGWYVLDGKRYVVPENHFFILPAEKPHQYGSSEHDPWYIYWAHFKGKKAKYISDQLQGVIPIDMDDNSRIGDRIAFFDELLNVLESGTDEATVNYVNLSFNHLIASFLYVKTYREAKFSKSKAENTFFISLATHFMTENLENKLTLKELASHFGYSESYMYRLFFKETGYAPMNYFLHMKIDRACQLLLHTNMKINQVALKLGFDDPYYFSRIFKKIVGTSPKDYRHSLPK | not soluble
MRVLITGATGGLGGAFARALKGHDLLLSGRRAGALAELAREVGARALPADLADELEAKALLEEAGPLDLLVHAVGKAGRASVREAGRDLVEEMLAAHLLTAAFVLKHARFQKGARAVFFGAYPRYVQVPGFAAYAAAKGALEAYLEAARKELLREGVHLVLVRLPAVATGLWAPLGGPPKGALSPEEAARKVLEGLFREPVPALLEV | soluble
SMARENGESSSSWKKQAEDIKKIFEFKETLGTGAFSEVVLAEEKATGKLFAVKCIPKKALKGKESSIENEIAVLRKIKHENIVALEDIYESPNHLYLVMQLVSGGELFDRIVEKGFYTEKDASTLIRQVLDAVYYLHRMGIVHRDLKPENLLYYSQDEESKIMISDFGLSKMEGKGDVMSTACGTPGYVAPEVLAQKPYSKAVDCWSIGVIAYILLCGYPPFYDENDSKLFEQILKAEYEFDSPYWDDISDSAKDFIRNLMEKDPNKRYTCEQAARHPWIAGDTALNKNIHESVSAQIRKNFAKSKWRQAFNATAVVRHMRKLHLGSSLDSSNA | soluble
MEKLIILGAQWGDEGKGKIVDLLSEHFDITVRYQGGSNAGHTVVVNSQKFILHLLPTGILHEHVKGVIAQGMVVDLEVLHKEVKNLEEKGIYVKERLFISDRAHLVMPYHKLLDSLFEKKKGIGTTLRGIGPAYMFKYGRKGIRISDLKDEKRFYTLLEDNLDFVKNICEKVFCEKFDLDINQIYEEQLRYFEEFKENVVDLLRFFNTQKGSVLFEGAQGTLLDVDMGTYPYVTSSNASALGLSNGTGMPPKYFSDAFFLGVAKAYTTRVGEGPFPTELKGEEGEKLRELGGEYGSTTGRPRRCGWLDLVALKYAVQVNGLDGFVITKLDVLDTFDEVKVCVAYELDGEVIDYFPASYSELIRVKPVYKTLKGWKKSTKGAKDVSELPKEALDYVKFIEEYTGVPVVMLSTGPKRDEYIWLKEILRTRSGYS | soluble
MDIIRLGDTTSHGGTVIEAFGQTDLNGKPMAGVGHQVVCPLCKGTFPITEGSALLDVNGVPVALHGMKTACGASLIASGPLGAAEN | not soluble
MAHHHHHHMIRWAAVLRCGAHGVREDRQALARHHLNLLDKRHWELTTPSRALPVVEVLIRSGVLMDRLEKSSTKPLASLTPSMTKKERSLVQKLSHMLHQASPPTACRVSRNAVEEDEAVRAAYSAACATGACTIDVVVDLAFVRHLRFPLSALMLLELVESRCVKVCWTRGKPCLSKELLDSICDLFAEHEQSLDFRATWWLLSLLGGGTQVRDWPITLSAGKRLFRLCVRRIHYLLPDLPLEDLLLAYVQLARIEGYEKPFIVLGEMERLLLATSSDEYTGVSTNVLLRFMTMPFAVRHADLNLRLCAGWSAASRITEFTQEECLAAFAIVAALHEGCVAESAAAVAALRDWEMLHDALFAQVFCVAHEMTAADCFRILDQSELINVSGWGITVPQMLLEKLKKRILSECTHYAMDECRVPETAELLLRVALGLQALMQRYTVLPSSAADEHAVAECILLLERCITVLPPHG | not soluble

— the DeepSol protein solubility set
